Reference: the supplement of paper PMC9170038

Legend:
[1] = system: MS2 coat protein; test: apparent KD of MS2 coat protein, switch ON state; designed switch direction (-1 OFF switch, 1 ON switch): 1; higher = weaker reporter binding; settings: FMN input: 0 or 200 uM; Eterna round: R93 (includes R88 designs)
Procedure, shortened: (§1)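 Each design's apparent KD comes from the median of binding-curve fits to its normalised clusters. Those clusters carried RNA switches transcribed on-chip from Illumina sequencing clusters. SNAP-549-labelled MS2 coat protein was titrated onto them in twofold steps (0.7 or 1.5 nM to 3 µM; per step 0.8–1.5 h down to 10–20 min). Conditions were 100 mM Tris-HCl pH 7.5, 80 mM KCl, 4 mM MgCl2, without or with constant ligand.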

[2] = system: MS2 coat protein; test: apparent KD of MS2 coat protein, switch OFF state (with FMN for OFF switches, without FMN for ON switches); designed switch direction (-1 OFF switch, 1 ON switch): 1; higher = weaker reporter binding; settings: FMN input: 0 or 200 uM; Eterna round: R93 (includes R88 designs)
Procedure, shortened: as §1

Sequence	apparent KD of MS2 coat protein [1]	apparent KD of MS2 coat protein [2]
AAAAAAAGAUCACAGGAUAUACGAAAAAAAACAUGAGGAUCACCCAUGUAAAAAAAAAAAAAAAAGUAGAAGGGUGAUCCAAAAAA	28.5 nM	11 nM
AAAAAACAUGAGGAUCACCCAUGUAAAAAAAUCACAGGAUAUAAGGUCGCGAAAGCGACCUUAGAAGGGUGAUCAA	58.8 nM	421 nM
AAAAAACAUGAGGAUCACCCAUGUAAAAAAAUGGGAGGAUAUACAAAAACAAAAAAAAAAGUAGAAGGCCUGAAAA [same state 9]	41.3 nM	419 nM
AAAAAACAUGAGGAUCACCCAUGUCCUCGGACGUGAGGAUAUGUACAGACUUCGGUCUGUACAGAAGGCAUGUAAA [SS1 - 1051]	555 nM	379 nM
AAAAAACAUGAGGAUCACCCAUGUCGAAAGACGUGAGGAUAUGUACAGACUUCGGUCUGUACAGAAGGCAUGAAAA [SS1 - 1057]	79.5 nM	176 nM
AAAAAACAUGAGGAUCACCCAUGUCUUUUGACAUGAGGAUAUGUACAGACUUCGGUCUGUACAGAAGGCAUAAAAA [SS1 - 1030]	109 nM	480 nM
AAAAAACAUGAGGAUCACCCAUGUGAGAACAUGGGAGGAUAUACGAGGACGAGAGUCAAGGUAGAAGGCCUAAGAA [Garnet 68]	268 nM	22.8 nM
AAAAAACAUGAGGAUCACCCAUGUGCAAAAUUCGCAGGAUAUUCCUCAAUUAAAUGAGAGGAAGAAGGGUGACAAA [Nob's Hobby 29 - Jieux - Same State 1]	112 nM	500 nM
AAAAAAGAUCGCGAGGAUAUCCGAGUGGUAACAUGAGGAUCACCCAUGUGAAGAAAGGAACAUGAGGAGAAGGCGCGAUCAAAAA [viburnum 5]	10.9 nM	18.7 nM
AAAACACAUGAGGAUCACCCAUGUAAAAACAUGAGAGGAUAUGCUUGGAAAACAUGCUAUGCAGAAGGCUCAAGUG [SS1 - 9]	18.2 nM	30.1 nM
AAAACACAUGAGGAUCACCCAUGUAGAAAUAUGGGAGGAUAUACGAAAACGAAAGUCAAAGUAGAAGGCCUAAAAG [saturn 3]	30.9 nM	79 nM
AAAACCUGCGUCGAGGAUAUGUAGCCCACUACAUGAGGAUCACCCAUGUGGAUCUUACUGGGUCGACAGAAGGUGAAAGUAAGGC [Ustionon]	49.3 nM	39.4 nM
AAAAGACAUGAGGAUCACCCAUGUAAAGACAUAGGAGGAUAUGUCUGGAAAAAAGACUGGACAGAAGGCCUUUGUC [SS1 - 62]	20 nM	20.4 nM
AAAAGACAUGAGGAUCACCCAUGUAGGCCAAAGCAAGGAUAUAGGCCACAGGGACGCGGACUAGAAGGUGCACGGC [Orerorge]	25.2 nM	60.2 nM
AAAAGACAUGAGGAUCACCCAUGUAGGCCAAAGCAAGGAUAUAGGCCACAGGGACGUGAACUAGAAGGUGCACGGC [Zainlebe]	30.8 nM	135 nM
AAAAGACAUGAGGAUCACCCAUGUCGAAAGACAUGAGGAUAUGUACAGACUUCGGUCUGUACAGAAGGCAUAAAAA [SS1 - 1061]	27 nM	89.5 nM
AAAAGACAUGAGGAUCACCCAUGUGAAAACGUAGGAGGAUAUGUAUGGAAACCAGACUGUACAGAAGGCCUUUGUC [SS1 - 75]	23 nM	23.3 nM
AAAAUACAUGAGGAUCACCCAUGUGAAAAUAUGGGAGGAUAUACGAAAAAUAAAUAAAACGUAGAAGGCCUAAAAA [SS! 1 MT 2]	22.2 nM	165 nM
AAAAUAUAAACAGAGGAUAUCCAAAGAACCACAUGAGGAUCACCCAUGUAAAGAAAGAAUAAGUGGGAGAAGGUUGAAAUAAUAA [Designing denovo 26]	49.9 nM	74.9 nM
AAACAAACAACGCAGGAUAUGCAAAAACCCACAUGAGGAUCACCCAUGUCCCAACAACAAACAAAGCAGAAGGGCGAACAAACAAA [High Roller1]	37.3 nM	86.8 nM

Sequence	apparent KD of MS2 coat protein [1]	apparent KD of MS2 coat protein [2]
AAACAGAUAGGACAGGAUAUGUCGUGAUAAACAUGAGGAUCACCCAUGUGAGACAUCACGUAAUCGCAGAAGGGUCCUGUCUUAC [Aquditiri]	16.3 nM	15.6 nM
AAACCACAUGAGGAUCACCCAUGUGAAAAAAACAUAGGAUAUGGAAACACGAAAGUGAAACCAGAAGGGUGAAAAA [77%, Mat - Mod of Eli, 27]	24.3 nM	23.8 nM
AAACCACAUGAGGAUCACCCAUGUGAAAUACAUACAGGAUAUGCGAAAAGAAACAAAGAAGCAGAAGGGUGAAAAA [75%, Ex sub1, 18]	15.9 nM	25.4 nM
AAAGACAUAGUUCAGGAUAUGGUAAUAGUCACAUGAGGAUCACCCAUGUGCAUUUAUAUGCGCGAUCAGAAGGGAGGUAGAUAUA [SameState2 Malc#18]	18.8 nM	17.7 nM
AAAUAAAGGACUGAGGAUAUACCACAUGAAACAUGAGGAUCACCCAUGUAGAAAUACAAAGGGUGGUAGAAGGCAGUCCACAAAC [Same State 2.5g ( so lets mod hyphema)]	15 nM	25.5 nM
AAAUAAAGGACUGAGGAUAUACCACAUGAAACAUGAGGAUCACCCAUGUAGAAAUACAAAGGGUGGUAGAAGGUAGUCCACAAAC [Same State 2.5 so lets mod hyphema)]	45.9 nM	68.9 nM
AAAUAAAUGACUAAGGAUAUAUCAAAGAAAACAUGAGGAUCACCCAUGUAAUAAUAAAAAGGGUGAUAGAAGGUAGUCAACAAAC [74%, More Paria 4]	23.7 nM	221 nM
AAAUAAAUGACUAAGGAUAUUUCAGAGAAAACAUGAGGAUCACCCAUGUAAUAAUAAAAAGGGUGAAAGAAGGUAGUCAACAAAC [74%, More Paria 4]	17.1 nM	41 nM
AAAUAAAUGACUGAGGAUAUAUCGAUGAAAACAUGAGGAUCACCCAUGUGAUAAUAAAAAGGGUGGUAGAAGGUAGUCAACAAAC [Mod 12 of Pariah 4 by Hyphema in Round 1]	55.5 nM	207 nM
AACAAUCUAUCUGAGGAUAUCAUGUCAAAGACAUGAGGAUCACCCAUGUCCAGGAAAACUGGUCAUGAGAAGGCAGAUAGAUUGA [SS2: 1111]	51.3 nM	887 nM
AACAAUCUAUCUGAGGAUAUGUGUCGAAAGACAUGAGGAUCACCCAUGUAAAAACAUGAAAAAACACAGAAGGCAGAUAGAUUGA [SS2: 1146]	62.6 nM	81.5 nM
AACAAUCUAUCUGAGGAUAUGUGUCGAAAGACAUGAGGAUCACCCAUGUGAAAACAUGAAAAAACACAGAAGGCAGAUAGAUUGA [SS2: 1147]	33.6 nM	70.6 nM
AAGAAACAUGAGGAUCACCCAUGUAAAAAUAUGGGAGGAUAUGCGAAAAGAAACAAAGAAGCAGAAGGCCUAAGAA [75%, Ex5 sub 1, 6]	15.9 nM	51.1 nM
AAGAAACAUGAGGAUCACCCAUGUAAAUAAAACACAGGAUAUCGAAUAUGGGAGAUUUAACGAGAAGGGUGAAGAA [Meechl MS2 SS1 3]	36 nM	87.7 nM
AAGAAACAUGAGGAUCACCCAUGUAAGAUAAACACAGGAUAUGCGAAAAGAAAUAAAGAAGCAGAAGGGUGAAGAA [Mat - Same State 1 - Tesla mod - 63]	21.7 nM	54.3 nM
AAGAAACAUGAGGAUCACCCAUGUAAGAUAAACACAGGAUAUGCGAAAGAAACAAAGAAAGCAGAAGGGUGAAGAA [Mat - Same State 1 - Tesla mod - 48]	9.76 nM	26.8 nM
AAGAAACAUGAGGAUCACCCAUGUAAGAUAAACACAGGAUAUGCGAAAUAAAUAAAUAAAGCAGAAGGGUGAAGAA [Mat - Same State 1 - Tesla mod - D149]	6.88 nM	19.4 nM
AAGAAACAUGAGGAUCACCCAUGUACCCAAAAGGGAGGAUAUCCGAAAGAAAGAAAGAAAGGAGAAGGCCCAUGAA [Xerxes II]	12.6 nM	34.2 nM
AAGAAACAUGAGGAUCACCCAUGUAGAAACAUGGGAGGAUAUACGAAGACGAAAGUCAAAGUAGAAGGCCUAAAAA [Garnet 90]	78.8 nM	198 nM
